Here are results for one molecule from patent US20230104769A1 (MABWELL SHANGHAI BIOSCIENCE, published 2023).

In assay [1] the target is T1, human PD-1-hFc (NCBI accession No.: NP_005009.2, 21aa-167aa, Lot: 20180329) (human, UniProt Q15116 21-167).
T1 construct: range 21-167; not shown: human Fc (hFc)
Kind of assay: competition ELISA, plate-bound PD-1-hFc, competitor PD-L2-hFc-Biotin 2 µg/mL; competitor PD-L2. As for the experimental part:
Afterwards, HRP-streptavidin (Cat: 52438, Sigma) which was diluted at a dilution of 1:2000 was added to the plate for reacting for 30 min. Later, TMB substrate was added to develop color for 15 min, which was followed by the addition of 2 M HCl to terminate the reaction and then the plate was detected by a microplate reader. With 630 nm as reference wavelength, the absorbance at 450 nm (A450 nm-630 nm) of each well in the plate was read and recorded.
A general note: An ELISA detects its analyte on a solid surface through an enzyme-linked reagent.

Another assay addresses T2, N49A.
T2 construct: also called full-length human PD-1 N49A expressed on HEK293 cells; PD-1-mut N49A; not shown: EGFP of the expression vector, if it is fused to PD-1
Put plainly: flow cytometry on transfected HEK293 cells, antibody 2 µg/ml, goat anti-human IgG(Fc)-Cy5; no negative-control bar is drawn. As to the method: (§1) The mutants obtained were inserted into an expression vector carrying EGFP to construct five plasmids expressing full-length human PD-1 (WT, N49A, N58A., N116A, N74A). […] 2 days after the transfection, the cells were collected to a 96-well plate, centrifuged at 1500 rpm for 2 minutes, and the supernatants in the wells were discarded. […] The working concentration of the primary antibodies was 2 μg/ml, and cells without primary antibodies added were used as negative controls. The mixtures obtained were centrifuged at 1500 rpm for 2 minutes, and supernatants were discarded. The cells in each well were resuspended by adding 200 μl PBS and the suspensions obtained were then centrifuged at 1500 rpm for 2 minutes, then supernatants were discarded. Later, the obtained cells were incubated with 200 μl goat anti-human IgG(Fc)-Cy5 (Cat: 12136, Lot: 017M4800V, Sigma) diluted with 5% BSA added into each well for 1 h at room temperature, then centrifuged at 1500 rpm for 2 minutes, and supernatants were discarded. The cells were resuspended by adding 200 μl PBS and the suspensions obtained were then centrifuged at 1500 rpm for 2 minutes, then supernatants were discarded. The cells again were resuspended by adding 200 μl PBS thereto and detected by flow cytometry (B49007AD, SNAW31211).
A general note: In flow cytometry, cells or beads pass a laser one at a time.

The next assay concerns the target T3, N74A.
T3 construct: also called full-length human PD-1 N74A expressed on HEK293 cells; PD-1-mut N74A; not shown: EGFP of the expression vector, if it is fused to PD-1
Described as above. As to the method:
as §1

A further assay concerns the target T4, N116A.
T4 construct: also called full-length human PD-1 N116A expressed on HEK293 cells; PD-1-mut N116A; not shown: EGFP of the expression vector, if it is fused to PD-1
Described as above. As for the experimental part:
as §1

For assay [2], the target named is T5, recombinant human PD-1 protein (NCBI accession No.: NP_005009.2, 21aa-167aa) (human, UniProt Q15116 21-167).
T5 construct: range 21-167; also called recombinant human PD-1 extracellular domain protein; PD-1-ECD
Put plainly: BLI (Octet QKe), biotin-labelled antibody on streptavidin sensor, PD-1 100 nM-12.5 nM. As for the experimental part:
Determination of the binding kinetics: the affinity of the antibody was determined with Octet QKe system from Fortebio using an assay of capturing biotin-labeled antibody with streptavidin. […] Both the binding and dissociating were conducted for 300 s.
Background: In BLI a coated tip is dipped into the sample, and binding shifts an interference pattern.

Assay [3] addresses T1, human PD-1-hFc (NCBI accession No.: …). Kind of assay: competition ELISA, plate-bound PD-1-hFc, competitor PD-L1-mFc 1 µg/mL; competitor PD-L1. As for the experimental part: Afterwards, HRP-anti-mouse Fc (Cat: 115-035-071, Jackson Immuno Research) which was diluted at a dilution of 1:5000 was added to the plate for reacting for 45 min. Later, TMB substrate (Cat: ME142, Beijing Taitianhe Biotech Co., Ltd.) was added to develop color for 15 min, which was followed by the addition of 2 M HCl to terminate the reaction and then the plate was detected by a microplate reader. With 630 nm as reference wavelength, the absorbance at 450 nm (A450 nm-630 nm) of each well in the plate was read and recorded.

In assay [4] the target is T6, mouse PD-1 (Cat: 50124-M08H, Sino Biological Inc.) (mouse, UniProt Q02242 25-167).
T6 construct: Bought recombinant protein; also called recombinant mouse PD-1
T6 sequence (looked up): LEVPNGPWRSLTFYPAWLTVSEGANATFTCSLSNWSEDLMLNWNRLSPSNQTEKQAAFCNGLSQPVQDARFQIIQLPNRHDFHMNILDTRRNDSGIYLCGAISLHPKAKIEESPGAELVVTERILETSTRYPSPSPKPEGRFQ
Kind of assay: ELISA, plate coated with the PD-1 protein at 1 µg/mL, biotinylated h317, HRP-streptavidin. As for the experimental part:
(§2) The plates were washed three times with PBS subsequently, and 5% BSA-PBS was added for blocking for 60 min at 37° C. […] Again, the plates were washed four times with PBST, then HRP-streptavidin (Cat: 019-035-098, Jackson immuno Research) with a dilution of 1:100 was added for a 30 min incubation at 37° C. Once again, the plates were washed four times with PBST, and TMB substrate was added for developing color through incubating for 10 min at 37° C., then the reaction was terminated by adding 2 M HCl. With 630 nm as reference wavelength, the absorbance at a wavelength of 450 nm (A450 nm-630 nm) of each well in the plates was read and recorded.

Assay [5] has as its target T7, rat PD-1 (Cat: 80448-R08H, Sino Biological Inc.) (rat, UniProt D3ZIN8 25-169).
T7 construct: Bought recombinant protein; also called recombinant rat PD-1; not shown: The vendor's tag
T7 sequence: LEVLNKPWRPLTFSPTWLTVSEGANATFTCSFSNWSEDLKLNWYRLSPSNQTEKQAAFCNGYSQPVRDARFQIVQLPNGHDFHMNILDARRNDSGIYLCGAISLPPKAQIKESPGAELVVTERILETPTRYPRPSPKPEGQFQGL
The assay is described as above. As to the method:
as §2

T5 sequence (Q15116 21-167 limits assumed, form in doubt): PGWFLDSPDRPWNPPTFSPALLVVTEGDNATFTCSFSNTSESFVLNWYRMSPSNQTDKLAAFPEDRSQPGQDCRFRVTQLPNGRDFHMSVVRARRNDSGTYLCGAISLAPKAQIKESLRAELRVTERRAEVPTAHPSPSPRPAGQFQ
T1 sequence (Q15116 21-167 limits assumed, form in doubt): as above
T2 sequence (chain, as listed by the source N49A N49A limits assumed): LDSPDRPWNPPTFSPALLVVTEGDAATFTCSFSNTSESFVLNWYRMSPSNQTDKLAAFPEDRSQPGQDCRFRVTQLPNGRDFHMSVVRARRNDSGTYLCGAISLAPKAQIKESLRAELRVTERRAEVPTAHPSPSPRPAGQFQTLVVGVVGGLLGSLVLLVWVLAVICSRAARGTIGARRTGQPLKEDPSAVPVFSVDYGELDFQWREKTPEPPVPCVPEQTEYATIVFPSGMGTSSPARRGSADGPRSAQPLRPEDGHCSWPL
T4 sequence (chain, as listed by the source N116A N116A limits assumed): as the sequence (chain, as listed by the source N49A N49A limits assumed) above, with A25N, N92A counted along it
T3 sequence (chain, as listed by the source N74A N74A limits assumed): as the sequence (chain, as listed by the source N49A N49A limits assumed) above, with A25N, N50A counted along it

B1: h317 (humanized anti-human PD-1 antibody) (antibody, V domains shown)
VH: EVQLVESGGGLVKPGGSLRLSCAASGFTFSSYDMSWVRQAPGKGLEWVATISGGGSYTYYPDSVKGRFTISRDNAKNSLYLQMNSLRAEDTAVYYCASPDSSGVAYWGQGTLVTVSS
VL: DIVMTQSPLSLPVTPGEPASITCKASQDVETVVAWYLQKPGQSPRLLIYWASTRHTGVPDRFSGSGSGTDFTLKISRVEAEDVGVYYCQQYSRYPWTFGQGTKL
notes: also called h317-biotin; biotinylated h317
On to B1, for which the IC50 in assay [1] was determined as 1.2 nM; in assay [3] it was 1.4 nM. Also, the binding result in the assay with N49A is “binds”; with N74A it was “binds”; in the assay with N116A it was “binds”; in assay [4], “no binding (tested: 1 nM (log(nM) 0 on the axis))”; in assay [5] it was “no binding (tested: 1 nM (log(nM) 0 on the axis))”. Also, the Kd in assay [2] is 6.16 nM. Moreover, in assay [2], the koff came out at 0.00095 s⁻¹. Moreover, the association rate constant (kon) in assay [2] came out at 154000 M⁻¹ s⁻¹.

What is called IC50 is the concentration needed to halve the response being measured. Broadly, the Kd is the constant that tells how readily two partners part at equilibrium. Broadly, the koff is the first-order rate constant of dissociation. As a reminder, the kon is a measure of how fast the partners come together.
